This is an account of results in article PMC3240692 (The FEBS journal, 2011).

In series [1] the target is T1, BcUGlcAE (Bacillus cytotoxicus, UniProt A7GQD3).
T1 sequence (A7GQD3 1-314): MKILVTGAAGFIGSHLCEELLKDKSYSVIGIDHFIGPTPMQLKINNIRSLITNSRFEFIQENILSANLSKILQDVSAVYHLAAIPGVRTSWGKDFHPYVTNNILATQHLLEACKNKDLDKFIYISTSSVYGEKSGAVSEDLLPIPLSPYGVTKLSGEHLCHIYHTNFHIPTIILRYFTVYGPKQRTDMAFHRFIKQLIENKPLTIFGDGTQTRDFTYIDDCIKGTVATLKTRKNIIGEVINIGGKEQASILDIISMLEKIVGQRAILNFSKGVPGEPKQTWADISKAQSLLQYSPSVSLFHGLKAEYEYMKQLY
Nature of the series: HPLC product assay, inhibition. Format: biochemical. Conditions: 1 mM UDP-GlcA, 1 mM NAD+, 50 mM phosphate pH 7.6, 37 °C.

Substrate in series [2]: O=C(O)[C@H]1O[C@H](OP(=O)(O)OP(=O)(O)OC[C@H]2O[C@@H](n3ccc(=O)[nH]c3=O)[C@H](O)[C@@H]2O)[C@H](O)[C@@H](O)[C@@H]1O
Put plainly: HPLC. Format: biochemical, Bacillus cytotoxicus. Conditions: 1 mM NAD+, 50 mM sodium phosphate pH 7.6, 37 °C.

Substrate in series [3]: Cc1cn([C@H]2C[C@H](O)[C@@H](COP(=O)(O)OP(=O)(O)O[C@H]3O[C@H](C(=O)O)[C@@H](O)[C@H](O)[C@H]3O)O2)c(=O)[nH]c1=O
Nature of the series: HPLC. The series is classed as biochemical, Bacillus cytotoxicus. Particulars: 1 mM NAD+, 50 mM sodium phosphate pH 7.6, 37 °C.

For `O=c1ccn([C@@H]2O[C@H](COP(=O)(O)OP(=O)(O)O[C@H]3OC[C@@H](O)[C@H](O)[C@H]3O)[C@@H](O)[C@H]2O)c(=O)[nH]1` [UDP-Xyl], in series [1], the inhibition entry was “the epimerase was highly inhibited by UDP and to a lesser extent by UDP-Xyl”.

Consider `O=c1ccn([C@@H]2O[C@H](COP(=O)(O)OP(=O)(O)O)[C@@H](O)[C@H]2O)c(=O)[nH]1` [UDP], for which the inhibition entry in series [1] was “the epimerase was highly inhibited by UDP and to a lesser extent by UDP-Xyl”.

B1: BcUGlcAE (Bacillus cytotoxicus NVH 391-98) (protein)
chain: T1 sequence (A7GQD3 1-314)
As a reminder, the Km is the substrate concentration at which the rate is half of its maximum. For orientation: kcat means the number of substrate molecules converted per active site and unit of time at saturation. A word on the kcat/Km: it is the second-order rate constant that governs catalysis at low substrate concentration. Take B1: in series [2], the Km was 120 ± 10 µM, the turnover number (kcat) stood at 3.2 ± 0.1 s⁻¹ and the kcat/Km is 26000 ± 1400 M⁻¹ s⁻¹. Also, in series [3], the Km is 180 ± 10 µM, the kcat is 2.1 ± 0.1 s⁻¹ and the kcat/Km is 12000 ± 400 M⁻¹ s⁻¹.
